Source: publication PMC2132829

Key:
[1] = target: Xmad1 (Xenopus laevis (endogenous in egg extracts)); experiment: co-IP
[2] = target: Xmad2 (Xenopus laevis (endogenous in egg extracts)); experiment: co-IP

| Substance | percent of Xmad2 bound with Xmad1 [1] [%] | percent of Xmad1 removed by immunodepletion of Xmad2 [2] [%] |
| --- | --- | --- |
| Xmad2 (natural protein) | 40 | – |
| Xmad1 (natural protein) | – | > 95 |
